Consider eleven molecules from patent US20190184007A1.

The target of one experiment is T1, HLA DQA1*0101:DQB1*0501.
T1 chain 1: not shown
T1 chain 2: not shown
In words: REVEAL class II binding assay (cell-free).

The target of experiment [1] is T2, HLA DQA1*0102:DQB1*0602, P01920.
T2 chain 1: not shown
T2 chain 2: not shown
In words: REVEAL class II binding assay (cell-free).

In the experiment with HLA DQA1*0101:DQB1*0501, RELILYDKEEMRRIWRQANNG (modifications not checked) [Peptide #2 (X181 NP fragment)] had an REVEAL 0 hrs (% of positive control signal) of 1.1 and an REVEAL 24 hours (% of positive control signal) of 1. Further, the REVEAL 24 hours (% of positive control signal) in experiment [1] was determined as 0.5.
In the experiment with HLA DQA1*0101:DQB1*0501, AMERNAGSGIIISDT (modifications not checked) [Peptide #16 (Hemagglutinin fragment)] returned an REVEAL 0 hrs (% of positive control signal) of 0.1, an REVEAL 24 hours (% of positive control signal) of 0.1 and a Stability index of 0.1. In addition, in experiment [1], the REVEAL 0 hrs (% of positive control signal) came out at 0, the REVEAL 24 hours (% of positive control signal) worked out at 0 and the Stability index is 0.
With EKATNPIVPSFDMSN (modifications not checked) [Peptide #7 (Common CP sequence)], in the experiment with HLA DQA1*0101:DQB1*0501, the REVEAL 0 hrs (% of positive control signal) is 0, the REVEAL 24 hours (% of positive control signal) was determined as 0 and the Stability index was 0. Besides, in experiment [1], the REVEAL 0 hrs (% of positive control signal) stood at 0, the REVEAL 24 hours (% of positive control signal) worked out at 0 and the Stability index stood at 0.
Regarding RELILYDKEEIRRIWRQANNG (modifications not checked) [Peptide #1 (X179-A NP fragment)], in the experiment with HLA DQA1*0101:DQB1*0501, the REVEAL 0 hrs (% of positive control signal) came out at 27.8 and the REVEAL 24 hours (% of positive control signal) was 7.4. Besides, in experiment [1], the REVEAL 0 hrs (% of positive control signal) came out at 24.4, the REVEAL 24 hours (% of positive control signal) turned out to be 16.9 and the Stability index was 11.1.
In the experiment with HLA DQA1*0101:DQB1*0501, IDPFKLLQNSQVVSL (modifications not checked) [Peptide #8 (Common CP sequence)] returned an REVEAL 0 hrs (% of positive control signal) of 0, an REVEAL 24 hours (% of positive control signal) of 0 and a Stability index of 0. Further, in experiment [1], the REVEAL 0 hrs (% of positive control signal) was 0.1, the REVEAL 24 hours (% of positive control signal) turned out to be 0.1 and the Stability index was 0.1.
In the experiment with HLA DQA1*0101:DQB1*0501, LILYDKEEMRRIWRQ (modifications not checked) [Peptide #4 (X181 NP fragment)] returned an REVEAL 0 hrs (% of positive control signal) of 0.1, an REVEAL 24 hours (% of positive control signal) of 0.1 and a Stability index of 0.1. In experiment [1], this molecule came in with an REVEAL 0 hrs (% of positive control signal) of 0.5, an REVEAL 24 hours (% of positive control signal) of 0.4 and a Stability index of 0.6.
Take ALNRGSGSGIITSDA (modifications not checked) [Peptide #17 (Hemagglutinin fragment)]: in the experiment with HLA DQA1*0101:DQB1*0501, the REVEAL 0 hrs (% of positive control signal) came to 0, the REVEAL 24 hours (% of positive control signal) is 0 and the Stability index was found to be 0. Besides, in experiment [1], the REVEAL 0 hrs (% of positive control signal) was found to be 0, the REVEAL 24 hours (% of positive control signal) is 0 and the Stability index worked out at 0.
Regarding VGKMIGGIGRFYIQM (modifications not checked) [Peptide #5 (Common CP sequence)], in the experiment with HLA DQA1*0101:DQB1*0501, the REVEAL 0 hrs (% of positive control signal) was found to be 43.6, the REVEAL 24 hours (% of positive control signal) came out at 13.9 and the Stability index was 6.4. In experiment [1], the REVEAL 0 hrs (% of positive control signal) was 77.3, the REVEAL 24 hours (% of positive control signal) was found to be 52.3 and the Stability index is 33.
Consider LTVAAWSVKTSPLNM (modifications not checked) [Peptide #13 (Reverse of #10)], for which, in the experiment with HLA DQA1*0101:DQB1*0501, the REVEAL 0 hrs (% of positive control signal) was 0.3, the REVEAL 24 hours (% of positive control signal) was found to be 0.3 and the Stability index came to 0.4. In experiment [1], this molecule returned an REVEAL 0 hrs (% of positive control signal) of 0.9, an REVEAL 24 hours (% of positive control signal) of 0.4 and a Stability index of 0.2.
In the experiment with HLA DQA1*0101:DQB1*0501, SGAAGAAVKGVGTMV (modifications not checked) [Peptide #6 (Common CP sequence)] gave an REVEAL 0 hrs (% of positive control signal) of 0, an REVEAL 24 hours (% of positive control signal) of 0 and a Stability index of 0. Also, in experiment [1], the REVEAL 0 hrs (% of positive control signal) is 0.1, the REVEAL 24 hours (% of positive control signal) amounted to 0.1 and the Stability index was determined as 0.1.
As to ALSRGFGSGIITSNA (modifications not checked) [Peptide #18 (Hemagglutinin fragment)], in the experiment with HLA DQA1*0101:DQB1*0501, the REVEAL 0 hrs (% of positive control signal) was found to be 0, the REVEAL 24 hours (% of positive control signal) was determined as 0 and the Stability index worked out at 0. In experiment [1], this molecule had an REVEAL 0 hrs (% of positive control signal) of 0, an REVEAL 24 hours (% of positive control signal) of 0 and a Stability index of 0.
